Laboratory results as given in IntAct's records for PubMed 22522702.

B1: ADP-ribosylation factor 6 (Mus musculus), P62331 (parent)
chain: MGKVLSKIFGNKEMRILMLGLDAAGKTTILYKLKLGQSVTTIPTVGFNVETVTYKNVKFNVWDVGGQDKIRPLWRHYYTGTQGLIFVVDCADRDRIDEARQELHRIINDREMRDAIILIFANKQDLPDAMKPHEIQEKLGLTRIRDRNWYVQPSCATSGDGLYEGLTWLTSNYKS
partner: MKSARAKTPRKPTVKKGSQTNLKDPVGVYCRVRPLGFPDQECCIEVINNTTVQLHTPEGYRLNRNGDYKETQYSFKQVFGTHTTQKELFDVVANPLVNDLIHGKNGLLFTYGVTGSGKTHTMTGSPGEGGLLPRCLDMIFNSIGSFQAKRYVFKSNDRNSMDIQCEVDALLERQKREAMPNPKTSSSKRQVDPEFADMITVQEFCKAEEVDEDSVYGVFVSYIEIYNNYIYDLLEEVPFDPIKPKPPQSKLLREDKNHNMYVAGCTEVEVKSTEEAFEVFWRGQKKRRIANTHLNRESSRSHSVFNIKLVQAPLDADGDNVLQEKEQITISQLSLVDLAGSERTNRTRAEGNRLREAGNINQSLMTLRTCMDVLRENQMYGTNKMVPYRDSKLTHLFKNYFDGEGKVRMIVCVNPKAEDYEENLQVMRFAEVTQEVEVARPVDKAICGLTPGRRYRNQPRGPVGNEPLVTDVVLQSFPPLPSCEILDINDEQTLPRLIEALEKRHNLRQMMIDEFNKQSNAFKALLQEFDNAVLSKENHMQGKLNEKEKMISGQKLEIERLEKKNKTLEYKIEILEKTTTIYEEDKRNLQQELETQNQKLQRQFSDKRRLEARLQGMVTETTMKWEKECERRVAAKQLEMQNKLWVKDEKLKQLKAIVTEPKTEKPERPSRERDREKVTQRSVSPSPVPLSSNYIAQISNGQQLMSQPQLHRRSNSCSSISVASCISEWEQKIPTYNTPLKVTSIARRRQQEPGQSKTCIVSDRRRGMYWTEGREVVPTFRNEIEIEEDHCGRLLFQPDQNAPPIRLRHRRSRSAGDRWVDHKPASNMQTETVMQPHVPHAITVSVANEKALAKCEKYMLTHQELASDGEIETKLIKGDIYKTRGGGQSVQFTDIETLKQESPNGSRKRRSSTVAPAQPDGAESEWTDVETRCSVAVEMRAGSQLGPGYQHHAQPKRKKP
B2: ADP-ribosylation factor 6 (Mus musculus), P62331 (parent)
chain: B1 chain
partner: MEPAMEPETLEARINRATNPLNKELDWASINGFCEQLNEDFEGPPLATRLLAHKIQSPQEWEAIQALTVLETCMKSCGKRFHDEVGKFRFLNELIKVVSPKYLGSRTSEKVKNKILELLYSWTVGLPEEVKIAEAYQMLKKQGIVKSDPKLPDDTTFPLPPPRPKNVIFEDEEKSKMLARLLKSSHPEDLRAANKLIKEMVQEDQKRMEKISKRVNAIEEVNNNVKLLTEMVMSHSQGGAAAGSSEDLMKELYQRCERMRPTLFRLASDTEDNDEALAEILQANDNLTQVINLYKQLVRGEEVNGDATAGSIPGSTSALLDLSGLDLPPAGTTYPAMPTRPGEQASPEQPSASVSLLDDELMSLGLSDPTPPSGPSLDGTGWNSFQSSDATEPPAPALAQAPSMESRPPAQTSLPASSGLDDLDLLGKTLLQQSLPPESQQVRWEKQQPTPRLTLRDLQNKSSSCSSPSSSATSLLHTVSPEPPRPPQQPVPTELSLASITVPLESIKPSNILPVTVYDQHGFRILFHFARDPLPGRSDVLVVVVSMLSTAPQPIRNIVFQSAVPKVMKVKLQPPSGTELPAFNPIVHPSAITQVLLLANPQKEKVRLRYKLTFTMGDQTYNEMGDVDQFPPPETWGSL
B3: ADP-ribosylation factor 6 (Mus musculus), P62331 (parent)
chain: B1 chain
partner: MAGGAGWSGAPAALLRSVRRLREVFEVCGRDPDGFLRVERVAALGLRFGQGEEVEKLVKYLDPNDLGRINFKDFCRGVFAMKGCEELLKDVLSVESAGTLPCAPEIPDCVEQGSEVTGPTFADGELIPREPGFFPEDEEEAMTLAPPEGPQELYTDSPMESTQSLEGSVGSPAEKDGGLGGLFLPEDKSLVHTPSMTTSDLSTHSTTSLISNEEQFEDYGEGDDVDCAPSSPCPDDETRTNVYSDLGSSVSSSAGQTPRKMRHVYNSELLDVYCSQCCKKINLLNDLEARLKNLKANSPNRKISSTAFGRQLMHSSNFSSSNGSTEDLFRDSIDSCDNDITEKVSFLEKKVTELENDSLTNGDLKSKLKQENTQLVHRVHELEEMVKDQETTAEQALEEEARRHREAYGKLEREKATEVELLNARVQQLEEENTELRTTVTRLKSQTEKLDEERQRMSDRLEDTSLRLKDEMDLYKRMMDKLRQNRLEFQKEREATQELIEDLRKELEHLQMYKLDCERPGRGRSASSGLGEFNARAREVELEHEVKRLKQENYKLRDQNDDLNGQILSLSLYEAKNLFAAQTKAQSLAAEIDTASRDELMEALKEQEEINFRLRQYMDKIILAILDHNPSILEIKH
B4: ADP-ribosylation factor 6 (Mus musculus), P62331 (parent)
chain: B1 chain
partner: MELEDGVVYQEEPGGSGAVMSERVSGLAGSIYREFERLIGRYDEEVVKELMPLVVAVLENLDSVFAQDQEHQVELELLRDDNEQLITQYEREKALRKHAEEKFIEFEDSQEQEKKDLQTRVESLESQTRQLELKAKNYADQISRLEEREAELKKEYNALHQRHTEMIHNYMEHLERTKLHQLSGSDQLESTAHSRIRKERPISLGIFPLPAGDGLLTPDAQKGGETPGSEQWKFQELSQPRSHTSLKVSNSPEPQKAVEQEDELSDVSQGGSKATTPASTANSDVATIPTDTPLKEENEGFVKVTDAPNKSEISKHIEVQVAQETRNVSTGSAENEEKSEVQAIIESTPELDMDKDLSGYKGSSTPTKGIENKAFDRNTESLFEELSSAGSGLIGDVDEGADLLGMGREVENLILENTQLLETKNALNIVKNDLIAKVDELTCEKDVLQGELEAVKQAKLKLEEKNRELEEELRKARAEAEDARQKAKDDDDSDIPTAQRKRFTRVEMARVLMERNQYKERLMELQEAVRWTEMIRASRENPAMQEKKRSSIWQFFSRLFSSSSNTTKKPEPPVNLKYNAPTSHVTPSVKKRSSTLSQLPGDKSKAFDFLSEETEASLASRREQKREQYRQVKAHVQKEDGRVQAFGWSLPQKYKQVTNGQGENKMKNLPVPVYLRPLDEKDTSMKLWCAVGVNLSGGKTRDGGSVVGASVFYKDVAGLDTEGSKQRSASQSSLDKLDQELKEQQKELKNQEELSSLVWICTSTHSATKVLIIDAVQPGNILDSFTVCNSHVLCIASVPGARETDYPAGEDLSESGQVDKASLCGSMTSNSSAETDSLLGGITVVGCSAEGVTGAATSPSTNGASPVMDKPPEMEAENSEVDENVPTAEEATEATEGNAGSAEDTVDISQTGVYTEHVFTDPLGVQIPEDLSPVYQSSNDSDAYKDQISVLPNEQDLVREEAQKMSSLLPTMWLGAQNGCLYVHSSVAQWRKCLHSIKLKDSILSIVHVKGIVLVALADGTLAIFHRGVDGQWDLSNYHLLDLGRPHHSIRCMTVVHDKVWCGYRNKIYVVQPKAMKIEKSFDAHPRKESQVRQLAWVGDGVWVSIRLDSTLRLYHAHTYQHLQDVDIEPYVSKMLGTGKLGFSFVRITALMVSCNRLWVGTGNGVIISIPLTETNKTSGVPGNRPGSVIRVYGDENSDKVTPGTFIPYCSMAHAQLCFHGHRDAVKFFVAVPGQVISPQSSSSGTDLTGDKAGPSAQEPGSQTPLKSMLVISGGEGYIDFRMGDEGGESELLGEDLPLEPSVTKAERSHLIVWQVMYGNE

Variants of: B1
Settings: with kif23_human KIF23, Q02241

Q: With Y77A as the variant, how does the “effect of a mutation on the interaction” value read?
A: disrupting interaction

Q: Q67L was tested. Which “effect of a mutation on the interaction” value did it give?
A: disrupting interaction

Variants of: B1
Settings: with kif23_human KIF23, Q02241
Remark: another data set of the same source

Q: For T27N, which “effect of a mutation on the interaction” value is on record?
A: decreasing interaction

Variants of: B1
Settings: with kif23_human KIF23, Q02241
Remark: another data set of the same source

Q: Which “effect of a mutation on the interaction” value does the source give for H76A here?
A: decreasing interaction

Q: For Q67L, which “effect of a mutation on the interaction” value is on record?
A: decreasing interaction

Variants of: B1
Settings: with kif23_human KIF23, Q02241
Remark: another data set of the same source

Q: For Q67L, which “effect of a mutation on the interaction” value is on record?
A: increasing interaction

Variants of: B2
Settings: with gga1_human GGA1, Q9UJY5

Q: Which “effect of a mutation on the interaction” value does the source give for Y77A here?
A: disrupting interaction

Q: How did the “effect of a mutation on the interaction” value turn out when Q67L was run?
A: disrupting interaction

Variants of: B2
Settings: with gga1_human GGA1, Q9UJY5
Remark: another data set of the same source

Q: Which “effect of a mutation on the interaction” value does the source give for H76A here?
A: disrupting interaction

Variants of: B3
Settings: with rfip4_human RAB11FIP4, Q86YS3

Q: Q67L was tested. Which “effect of a mutation on the interaction” value did it give?
A: disrupting interaction

Q: H76A was tested. Which “effect of a mutation on the interaction” value did it give?
A: disrupting interaction

Variants of: B3
Settings: with rfip4_human RAB11FIP4, Q86YS3
Remark: another data set of the same source

Q: Y77A was tested. Which “effect of a mutation on the interaction” value did it give?
A: disrupting interaction

Variants of: B4
Settings: with jip4_human SPAG9, O60271

Q: Q67L was tested. Which “effect of a mutation on the interaction” value did it give?
A: disrupting interaction

Q: Y77A was tested. Which “effect of a mutation on the interaction” value did it give?
A: disrupting interaction

Variants of: B4
Settings: with jip4_human SPAG9, O60271
Remark: another data set of the same source

Q: With H76A as the variant, how does the “effect of a mutation on the interaction” value read?
A: disrupting interaction
